Laboratory results from article PMC8800115, “The ASCC2 CUE domain in the ALKBH3–ASCC DNA repair complex recognizes adjacent ubiquitins in K63-linked polyubiquitin” (The Journal of Biological Chemistry, 2021).

Molecular target: T1, K63-linked diubiquitin (UniProt P0CG48 1-76; P0CG48 1-76, K48R | K63R | D77 extension, distal ubiquitin: C-terminal G76 in an isopeptide bond with K63 of the proximal ubiquitin | proximal ubiquitin: K63 in an isopeptide bond with G76 of the distal ubiquitin)
T1 construct: ubiquitin, residues 1 to 76, K48R/K63R; distal position of K63Ub2; ubiquitin, residues 1 to 76, with a D77 extension; proximal position of K63Ub2; Two ubiquitins joined covalently; For NMR either the distal or the proximal ubiquitin was 15N-labelled; also called K63Ub2; WT K63Ub2
Assay: ITC; MicroCal iTC200; proteins dialysed in 20 mM Hepes pH 7.5, 150 mM NaCl, 200 μM TCEP; 2-μl injections; who was in the cell is not given; ranges of Kd are from fits with N fixed to 1 (first value: active concentration in the cell varied, second: in the syringe); Kd of S470R and E467R/S470R called apparent
Details: both partners purified

B1: full-length ASCC2 (natural protein, human, UniProt Q9H1I8 1-757, looked up)
chain: MPALPLDQLQITHKDPKTGKLRTSPALHPEQKADRYFVLYKPPPKDNIPALVEEYLERATFVANDLDWLLALPHDKFWCQVIFDETLQKCLDSYLRYVPRKFDEGVASAPEVVDMQKRLHRSVFLTFLRMSTHKESKDHFISPSAFGEILYNNFLFDIPKILDLCVLFGKGNSPLLQKMIGNIFTQQPSYYSDLDETLPTILQVFSNILQHCGLQGDGANTTPQKLEERGRLTPSDMPLLELKDIVLYLCDTCTTLWAFLDIFPLACQTFQKHDFCYRLASFYEAAIPEMESAIKKRRLEDSKLLGDLWQRLSHSRKKLMEIFHIILNQICLLPILESSCDNIQGFIEEFLQIFSSLLQEKRFLRDYDALFPVAEDISLLQQASSVLDETRTAYILQAVESAWEGVDRRKATDAKDPSVIEEPNGEPNGVTVTAEAVSQASSHPENSEEEECMGAAAAVGPAMCGVELDSLISQVKDLLPDLGEGFILACLEYYHYDPEQVINNILEERLAPTLSQLDRNLDREMKPDPTPLLTSRHNVFQNDEFDVFSRDSVDLSRVHKGKSTRKEENTRSLLNDKRAVAAQRQRYEQYSVVVEEVPLQPGESLPYHSVYYEDEYDDTYDGNQVGANDADSDDELISRRPFTIPQVLRTKVPREGQEEDDDDEEDDADEEAPKPDHFVQDPAVLREKAEARRMAFLAKKGYRHDSSTAVAGSPRGHGQSRETTQERRKKEANKATRANHNRRTMADRKRSKGMIPS
notes: source: E. coli Rosetta (DE3), purified (HisTrap, Superdex 200)
- stoichiometry N: 1 ASCC2 per K63Ub2
